Residue numbers refer to the chain shown, from its start.
T1: Cynomolgus Monkey CD3 epsilon protein (Cynomolgus monkey, UniProt Q95LI5 22-117)
T1 construct: Bought protein; also called Cyno-Monkey CD3epsilon
T1 sequence (looked up): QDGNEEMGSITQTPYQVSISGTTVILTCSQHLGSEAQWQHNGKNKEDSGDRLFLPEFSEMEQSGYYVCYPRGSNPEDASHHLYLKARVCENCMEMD

B1: WBP3311_2.166.48 (antibody, IgG2a, V domains shown)
VH: QVQLQQSGPELVKPGASVKIACKASGYSFTTYYIHWVKQRPGQGLEWIGWIFPGNDNIKYSEKFKGKATLTADTSSSTAYMQLSSLTSEDSAVYFCAIDSVSIYYFDYWGQGTTLTVSS
VL: DIVMSQSPSSLAVSAGEKVTMSCKSSQSLLNSRTRKNYLAWYQQKPGQSPKLLIYWASTRKSGVPDRFTGSGSGTDFTLTINSVQAEDLAVYYCTQSFILRTFGGGTKLEIK
notes: Mouse monoclonal antibody from hybridoma; also called W3311-2.166.48; W3311_2.166.48
B2: WBP3311_2.306.4 (antibody, IgG2b, V domains shown)
VH: QVQLQQSGPELVKPGASVRISCKASGFAFTDYYIHWVKQRPGQGLEWIGWISPGNVNTKYNENFKGRATLTADLSSSTAYMQLSSLTSEDSAVYFCARDGYSLYYFDYWGQGTTLTVSS
VL: B1 VL with A12T, K61Q, D76A, N82S, S83G, Y93F, F98H, I99T
notes: Mouse monoclonal antibody from hybridoma; also called W3311-2.306.4; W3311-2.306.4-mIgG2bK
B3: WBP3311_2.844.8 (antibody, V domains shown)
VH: B2 VH
VL: B1 VL with A12T, K61E, D76A, N82S, S83G, Y93F, F98H, I99T
notes: Mouse monoclonal antibody from hybridoma; also called W3311-2.844.8; clone 2.844.8
B4: WBP3311_2.383.47 (antibody, V domains shown)
VH: QVQLQQSGPELVKPGASVRISCKTSGFTFTNYYIHWVIQRPGQGLEWIGWISPENGNTKYNENFQDKATLTADISSSTAYMHLSSLTSEDSAVYFCARDGYSLYYFDYWGQGTTLTVSS
VL: B1 VL with A12T, T59I, K61V, D76T, N82S, S83G, F98H, I99T
notes: Mouse monoclonal antibody from hybridoma
B5: WBP3311_2.400.5 (antibody, V domains shown)
VH: QVQLQQSGPELVNPGASVKISCKASGYSFTNYYLHWVKQRPGQGLEWIGWIFPESDNTKYNEKLKGKATLTADTSSDTAYMHLSSLTFEDSAVYFCARDSVGNYFFDFWGQGTTLTVSS
VL: B1 VL with S22R, L30V, S32N, S49P, K61E, N82S, T95A
notes: Mouse monoclonal antibody from hybridoma; also called W3311-2.400.5
B6: WBP3311_2.482.5 (antibody, V domains shown)
VH: QVQLQQSGPELVKPGSSVKISCKPSGYTFTTYYIHWVKQRPGQGLEWIGWIFPGSDNIKYNENFKDKATLTADTSSSTAYMQLSSLTSEDSAVYFCARDSVSRYYFDYWGQGTILTVSS
VL: B1 VL with L30V, S32D, Q48L, K61E, N82S, T95A
notes: Mouse monoclonal antibody from hybridoma; also called W3311-2.482.5
B7: WBP331_2.488.33 (antibody, V domains shown)
VH: QVQLQQSGPELVKPGTSVKISCKASGFSFTNYYIHWVKQRPGQGPEWIGWIFPGTVNTKYNEKFKGKATLTADTSSNTAFMQLSSLTSADSAVYFCARDSVGIYYFDFWGLGTTLTVSS
VL: B1 VL with M21V, S32N, K61E, N82S
notes: Mouse monoclonal antibody from hybridoma; also called WBP3311_2.488.33; W3311-2.488.33
B8: WBP3311_2.615.8 (antibody, V domains shown)
VH: QVQLQQSGPELVKPGTSMKISCKASGYSFTDFYTHWVRQRPGQGLEWIGWIFPGSDNIKYNEKFKGKATLTADTSSSTAYMQLSSLTSEDSAVYFCARDSVSVYYFDYWGQGTTLTVSS
VL: B1 VL with S14T, S32I, K61D, N82S
notes: Mouse monoclonal antibody from hybridoma; also called W3311-2.615.8
B9: WBP3311_2.166.48-z1-uIgG1K (antibody, V domains shown)
VH: QVQLVQSGAEVKKPGSSVKVSCKASGYSFTTYYIHWVRQAPGQGLEWMGWIFPGNDNIKYSEKFKGRVTITADKSTSTAYMELSSLRSEDTAVYYCAIDSVSIYYFDYWGQGTLVTVSS
VL: DIVMTQSPDSLAVSLGERATINCKSSQSLLNSRTRKNYLAWYQQKPGQPPKLLIYWASTRKSGVPDRFSGSGSGTDFTLTISSLQAEDVAVYYCTQSFILRTFGGGTKVEIK
notes: Humanized antibody; uIgG1K means human IgG1 constant region and kappa light chain; expressed in 293F cells; also called W3311-2.166.48-z1-uIgG1K
B10: WBP3311_2.306.4-z1-uIgG1K (antibody, V domains shown)
VH: QVQLVQSGAEVKKPGSSVKVSCKASGFAFTDYYIHWVRQAPGQGLEWMGWISPGNVNTKYNENFKGRVTITADKSTSTAYMELSSLRSEDTAVYYCARDGYSLYYFDYWGQGTLVTVSS
VL: B9 VL with K61Q, F98H, I99T
notes: Humanized antibody; uIgG1K means human IgG1 constant region and kappa light chain; expressed in 293F cells; also called W3311-2.306.4-z1-uIgG1K

What follows are binders tested against T2, Human CD3 Gamma (CD3gamma) protein (human, UniProt P09693 23-116) (assay: ELISA, antigen coated on plate, HRP-labelled 2nd antibody).
T2 construct: extracellular domain; Bought protein
T2 sequence (P09693 23-116): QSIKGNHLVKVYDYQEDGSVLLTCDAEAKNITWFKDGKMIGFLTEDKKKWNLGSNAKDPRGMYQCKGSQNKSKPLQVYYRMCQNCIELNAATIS
Procedure: (§1) Human CD3epsilon, CD3delta and CD3gamma proteins were pre-coated in 96-well plates, respectively. The binding affinity of eight mAbs at various concentrations to these three different CD3 protein extracellular domain was detected by corresponding HRP labeled 2nd antibodies. The binding EC₅₀ (concentration of the test antibody when reaching half maximum binding) were analyzed by using GraphPad Prism software equation: Nonlinear regression (curve fit)—log (agonist) vs. response-Variable slope.

| Binder | ELISA (A450) |
| --- | --- |
| B1 | 0.05 |
| B2 | 0.06 |
| B3 | 0.07 |
| B4 | 0.05 |
| B5 | 0.05 |
| B6 | 0.06 |
| B7 | 0.06 |
| B8 | 0.05 |

Each binder was assayed against T3, Human CD3 epsilon (CD3epsilon) protein (His Tag) (human, UniProt P07766 23-126) in the same assay as above.
T3 construct: extracellular domain; Bought protein; also called recombinant human CD3epsilon ECD; not shown: His tag
T3 sequence (P07766 23-126): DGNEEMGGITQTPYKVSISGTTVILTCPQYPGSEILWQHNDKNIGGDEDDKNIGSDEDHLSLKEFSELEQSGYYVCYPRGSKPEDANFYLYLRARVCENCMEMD
Procedure: as §1

| Binder | ELISA (A450) |
| --- | --- |
| B1 | 1.64 |
| B2 | 1.46 |
| B3 | 1.54 |
| B4 | 1.61 |
| B5 | 1.57 |
| B6 | 1.33 |
| B7 | 1.7 |
| B8 | 1.55 |

These binders were tested against T4, Human CD3 delta (CD3 delta) protein (His Tag) (human, UniProt P04234 22-105) in the same assay as above.
T4 construct: extracellular domain; Bought protein; not shown: His tag
T4 sequence (P04234 22-105, stated change not applied): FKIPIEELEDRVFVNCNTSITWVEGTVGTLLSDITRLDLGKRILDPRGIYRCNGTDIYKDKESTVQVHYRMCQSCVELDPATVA
Procedure: as §1

| Binder | ELISA (A450) |
| --- | --- |
| B1 | 0.05 |
| B2 | 0.05 |
| B3 | 0.06 |
| B4 | 0.05 |
| B5 | 0.05 |
| B6 | 0.05 |
| B7 | 0.05 |
| B8 | 0.05 |

Each binder was assayed against T5, human CD3 expressed on cells (Jurkat cells; human CD4 T cells) (human, UniProt P07766 23-207) (assay: flow cytometry on Jurkat cells).
T5 construct: whole, on cells; also called human CD3 receptor on T cell surface; human CD3 expressing cells (Jurkat cells)
T5 sequence (P07766 23-207): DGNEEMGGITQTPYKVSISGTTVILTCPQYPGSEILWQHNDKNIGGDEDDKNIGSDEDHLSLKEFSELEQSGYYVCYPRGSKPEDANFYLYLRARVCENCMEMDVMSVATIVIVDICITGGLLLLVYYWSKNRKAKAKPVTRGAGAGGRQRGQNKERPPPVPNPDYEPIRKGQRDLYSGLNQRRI
Procedure: Various concentrations of testing mAbs were added to Jurkat cells, and then the binding activity of mAbs onto the surface of cells was detected by 2nd antibody-FITC. OKT3 was used as the positive control. The stained cells were analyzed by using a BD Biosciences FACSCanto II instrument and Flow Jo Version software. The binding EC₅₀ were calculated by using GraphPad Prism software equation: Nonlinear regression (curve fit)—log (agonist) vs. response-Variable slope.

| Binder | EC50 [nM] | MFI (FACS) [MFI] |
| --- | --- | --- |
| B1 | 6.91 | 2140 |
| B2 | 0.57 | 3360 |
| B3 | 0.77 | 984 |
| B4 | 0.91 | 2130 |
| B5 | 2.5 | 2740 |
| B6 | 3.71 | 2390 |
| B7 | 2.97 | 2270 |
| B8 | 4.65 | 2220 |

These binders were tested against T5, human CD3 expressed on cells (Jurkat …) (assay: flow cytometry on Jurkat cells, one site saturation fit).

| Binder | Kd [nM] |
| --- | --- |
| B9 | 0.201 |
| B10 | 0.053 |

Biological target: T5, human CD3 expressed on cells (Jurkat …)
Assay: as above
Set-up: Best fit-Bmax: unit not given here
Remark: another data set of the same source

| Binder | Best fit-Bmax | Kd [nM] |
| --- | --- | --- |
| B1 | 1.26e-10 | 1.67 |
| B2 | 1.17e-10 | 0.191 |
| B3 | 1.19e-10 | 0.252 |
| B4 | 1.12e-10 | 0.403 |
| B5 | 1.13e-10 | 0.934 |
| B6 | 1.3e-10 | 2.29 |
| B7 | 1.3e-10 | 1.32 |
| B8 | 1.2e-10 | 2.23 |

These binders were tested against T2, Human CD3 Gamma (CD3gamma) protein (assay: ELISA, antigen coated on plate).

| Binder | binding result |
| --- | --- |
| B1 | no binding |
| B2 | no binding |
| B3 | no binding |
| B4 | no binding |
| B5 | no binding |
| B6 | no binding |
| B7 | no binding |
| B8 | no binding |

Each binder was assayed against T4, Human CD3 delta (CD3 delta) protein … (assay: ELISA, antigen coated on plate).

| Binder | binding result |
| --- | --- |
| B1 | no binding |
| B2 | no binding |
| B3 | no binding |
| B4 | no binding |
| B5 | no binding |
| B6 | no binding |
| B7 | no binding |
| B8 | no binding |

What follows are binders tested against T6, mouse CD3epsilon protein (mouse, UniProt P22646 22-108, limits assumed) (assay: ELISA, antigen coated on plate).
T6 sequence (P22646 22-108 limits assumed): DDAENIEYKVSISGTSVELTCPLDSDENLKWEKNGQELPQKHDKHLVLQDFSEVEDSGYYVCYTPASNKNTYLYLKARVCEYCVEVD

| Binder | binding result |
| --- | --- |
| B1 | no binding |
| B8 | no binding |

What follows are binders tested against T3, Human CD3 epsilon (CD3epsilon) protein … (assay: ELISA, antigen coated on plate).

| Binder | ELISA (A450) |
| --- | --- |
| B1 | 2.76 |
| B2 | 2.91 |
| B3 | 2.92 |
| B4 | 2.79 |
| B5 | 2.83 |
| B6 | 2.95 |
| B7 | 2.91 |
| B8 | 2.82 |

What follows are binders tested against T1, Cynomolgus Monkey CD3 epsilon protein (assay: ELISA, antigen coated on plate).

| Binder | ELISA (A450) |
| --- | --- |
| B1 | 2.81 |
| B2 | 2.82 |
| B3 | 2.75 |
| B4 | 2.76 |
| B5 | 2.79 |
| B6 | 2.87 |
| B7 | 2.83 |
| B8 | 2.71 |

Biological target: T6, mouse CD3epsilon protein
Assay: ELISA, antigen coated on plate
Remark: another data set of the same source

| Binder | ELISA (A450) |
| --- | --- |
| B1 | 0.446 |
| B8 | 0.471 |

Biological target: T3, Human CD3 epsilon (CD3epsilon) protein …
Assay: ELISA, antigen coated on plate
Remark: another data set of the same source

| Binder | EC50 [nM] |
| --- | --- |
| B1 | 0.049 |
| B2 | 0.012 |
| B3 | 0.011 |
| B4 | 0.074 |
| B5 | 0.053 |
| B6 | 0.069 |
| B7 | 0.026 |
| B8 | 0.033 |

Biological target: T1, Cynomolgus Monkey CD3 epsilon protein
Assay: ELISA, antigen coated on plate
Remark: another data set of the same source

| Binder | EC50 [nM] |
| --- | --- |
| B1 | 0.033 |
| B2 | 0.011 |
| B3 | 0.009 |
| B4 | 0.028 |
| B5 | 0.024 |
| B6 | 0.028 |
| B7 | 0.019 |
| B8 | 0.025 |

Each binder was assayed against T5, human CD3 expressed on cells (Jurkat …) (assay: flow cytometry on human CD4 T cells).

| Binder | EC50 [nM] |
| --- | --- |
| B1 | 3.51 |
| B2 | 0.461 |
| B9 | 1.01 |
| B10 | 0.253 |

Biological target: T1, Cynomolgus Monkey CD3 epsilon protein
Assay: ELISA, antigen coated on plate
Remark: another data set of the same source

| Binder | EC50 [nM] |
| --- | --- |
| B1 | 0.125 |
| B9 | 0.043 |
| B10 | 0.043 |

From patent US20200299384A1 (published 2020)
